Experiments:
[1] = target: T1, G. intestinalis thymidine kinase (TK) (Giardia duodenalis, UniProt A8BRU1); assay: thymidine kinase assay (phosphorylation of the nucleoside); type: biochemical; conditions: 2 mM ATP, 5 mM MgCl2, 0.5 mM DTT, 100 mM potassium acetate, 50 mM Tris-HCl pH 7.5, 37 °C
T1 construct: gene GL50803_008364; full length, 392 residues, 42 kDa, monomer (mass photometry); expressed in E. coli BL21(DE3)pLysS from pET-Z as His6-Z fusion, tag removed with TEV protease; two TK1-like domains (1-210 active, 211-392 degenerate)
T1 sequence (A8BRU1 1-392): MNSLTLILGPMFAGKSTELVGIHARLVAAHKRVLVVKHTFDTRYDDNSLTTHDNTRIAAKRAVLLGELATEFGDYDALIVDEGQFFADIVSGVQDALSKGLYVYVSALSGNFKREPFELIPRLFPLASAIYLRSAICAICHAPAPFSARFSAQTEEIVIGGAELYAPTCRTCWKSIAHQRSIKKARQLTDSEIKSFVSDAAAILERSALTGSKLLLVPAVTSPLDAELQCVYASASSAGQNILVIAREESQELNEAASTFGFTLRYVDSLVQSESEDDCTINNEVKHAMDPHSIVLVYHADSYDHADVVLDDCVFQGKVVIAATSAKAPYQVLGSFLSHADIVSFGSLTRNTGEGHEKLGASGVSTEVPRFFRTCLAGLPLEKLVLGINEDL
From the text: (§1) thymidine kinase assay (phosphorylation of the nucleoside) on G. intestinalis thymidine kinase (TK)

[2] = target: T1, G. intestinalis thymidine kinase (TK); assay: radiometric [[…]'-3H]thymidine phosphorylation, DE81 / Hybond-XL filter assay; type: biochemical
[3] = substrate: Cc1cn([C@H]2C=C[C@@H](CO)O2)c(=O)[nH]c1=O; assay: thymidine kinase assay (phosphorylation of the nucleoside); type: biochemical, Giardia duodenalis; conditions: 2 mM ATP, 5 mM MgCl2, 0.5 mM DTT, 100 mM potassium acetate, 50 mM Tris-HCl pH 7.5, 37 °C
From the text: as §1

[4] = substrate: Cc1cn([C@@H]2O[C@H](CO)[C@@H](O)[C@@H]2O)c(=O)[nH]c1=O; assay: as above; type: biochemical, Giardia duodenalis; conditions: 2 mM ATP, 5 mM MgCl2, 0.5 mM DTT, 100 mM potassium acetate, 50 mM Tris-HCl pH 7.5, 37 °C
From the text: as §1

[5] = substrate: O=c1ccn([C@H]2C[C@H](O)[C@@H](CO)O2)c(=O)[nH]1; assay: as above; type: biochemical, Giardia duodenalis; conditions: 2 mM ATP, 5 mM MgCl2, 0.5 mM DTT, 100 mM potassium acetate, 50 mM Tris-HCl pH 7.5, 37 °C
From the text: as §1

[6] = substrate: O=c1ccn([C@@H]2O[C@H](COP(=O)(O)OP(=O)(O)OP(=O)(O)O)[C@@H](O)[C@H]2O)c(=O)[nH]1; assay: purified protein; type: biochemical, Giardia duodenalis; conditions: phosphate donor varied, 1 μM thymidine, 10 mM MgCl2, pH 7.5, 37 °C
[7] = substrate: Nc1ccn([C@@H]2O[C@H](COP(=O)(O)OP(=O)(O)OP(=O)(O)O)[C@@H](O)[C@H]2O)c(=O)n1; assay: purified protein; type: biochemical, Giardia duodenalis; conditions: phosphate donor varied, 1 μM thymidine, 10 mM MgCl2, pH 7.5, 37 °C
[8] = substrate: Nc1ncnc2c1ncn2[C@@H]1O[C@H](COP(=O)(O)OP(=O)(O)OP(=O)(O)O)[C@@H](O)[C@H]1O; assay: purified protein; type: biochemical, Giardia duodenalis; conditions: phosphate donor varied, 1 μM thymidine, 10 mM MgCl2, pH 7.5, 37 °C
[9] = substrate: Nc1nc2c(ncn2[C@@H]2O[C@H](COP(=O)(O)OP(=O)(O)OP(=O)(O)O)[C@@H](O)[C@H]2O)c(=O)[nH]1; assay: purified protein; type: biochemical, Giardia duodenalis; conditions: phosphate donor varied, 1 μM thymidine, 10 mM MgCl2, pH 7.5, 37 °C

Molecule: Cc1cn([C@H]2C[C@H](N=[N+]=[N-])[C@@H](CO)O2)c(=O)[nH]c1=O [AZT]
- Km (μM) [1]: 0.044 ± 0.002 (12%) μM

Molecule: Cc1cn([C@H]2C[C@H](O)[C@@H](COP(=O)(O)OP(=O)(O)OP(=O)(O)O)O2)c(=O)[nH]c1=O [dTTP]
- IC50 [2]: 30 ± 3 µM

B1: G. intestinalis thymidine kinase (TK) (Giardia lamblia ATCC 50803) (protein)
chain: T1 sequence (A8BRU1 1-392)
notes: full length, 392 residues, 42 kDa, monomer (mass photometry); expressed in E. coli BL21(DE3)pLysS from pET-Z as His6-Z fusion, tag removed with TEV protease; two TK1-like domains (1-210 active, 211-392 degenerate)
- Km [3]: 39 ± 13 µM
- Vmax [3]: 0.25 µmol/min
- kcat [3]: 0.17 s⁻¹
- kcat/Km [3]: 4500 M⁻¹ s⁻¹
- Km [4]: 425 ± 47 µM
- Vmax [4]: 0.68 µmol/min
- kcat [4]: 0.48 s⁻¹
- kcat/Km [4]: 1100 M⁻¹ s⁻¹
- Km [5]: 5.3 ± 1.3 µM
- Vmax [5]: 1.02 µmol/min
- kcat [5]: 0.67 s⁻¹
- kcat/Km [5]: 134000 M⁻¹ s⁻¹
- Km [6]: 1927 ± 269 µM
- Vmax [6]: 1.66 µmol/min
- kcat [6]: 1.16 s⁻¹
- kcat/Km [6]: 600 M⁻¹ s⁻¹
- Km [7]: 2396 ± 199 µM
- Vmax [7]: 1.7 µmol/min
- kcat [7]: 1.19 s⁻¹
- kcat/Km [7]: 500 M⁻¹ s⁻¹
- Km [8]: 467 ± 29 µM
- Vmax [8]: 0.93 µmol/min
- kcat [8]: 0.65 s⁻¹
- kcat/Km [8]: 1400 M⁻¹ s⁻¹
- Km [9]: 1303 ± 78 µM
- Vmax [9]: 2.41 µmol/min
- kcat [9]: 1.69 s⁻¹
- kcat/Km [9]: 1300 M⁻¹ s⁻¹

Source: paper PMC9190010, “Giardia intestinalis thymidine kinase is a high-affinity enzyme crucial for DNA synthesis and an exploitable target for drug discovery” (The Journal of Biological Chemistry, 2022)
